{"source": "patent US6972178B1", "about": "“Drug screening using a proline-rich nuclear receptor co-regulatory protein/nuclear receptor co-expression system” (City of Hope, priority 1999, dated 2005)", "key": {"RAR HBD": {"system": "RAR HBD", "test": "Yeast two-hybrid assay (HIS3 / β-galactosidase reporter)", "format": "cell-based", "conditions": "10 μM of all-trans-retinoic acid", "description": "(§1) The protein-protein interactions between the full-length PNRC or PNRC fragments and SF1, ERRα1, and several other nuclear receptors were analyzed by yeast two-hybrid assays. The yeast two-hybrid assay was used to test if PNRC also interacts with other members of the nuclear receptor superfamily. pGBT9-ERRα-1 yeast expression plasmid was prepared by inserting the PCR-amplified ERRA-1 coding region into pGBT9 through an EcoRI site. To construct the plasmid pGBT9-ER274-595, the coding sequence from amino acids 274 to 595 (LBD) of ERα was amplified by PCR with the sense primer 5′-[…]-3′ (SEQ ID NO:1) and antisense primer 5′-[…]-3′ (SEQ ID NO:2) and cloned into the EcoRI/,SalI site of the pGBT9 yeast expression plasmid. pSG5-GRIP1 and several yeast expression plasmids coding for fusion proteins of Gal4-DBD and HBDs of AR, GR, PR, TR, RAR, and RXR in pGBT9 vector were kindly provided by Dr. Michael R. Stallcup (University of Southern California, Los Angeles, Calif.) (Voegel et al., 1996; Hong et al., 1996; Ding et al., 1998). The yeast mating approach was used in yeast two-hybrid assays to study protein-protein interactions as described in Clontech's protocol. Briefly, pGBT9 (DNA-BD vector only), pGBT9/target plasnmids for SF1, ERRα1, and other HBDs of nuclear receptors, and DNA-BD/control plasmids (as negative control) were introduced into the reporter strain Y187, and the AD vector alone or wild type PNRC and its deleted fragments-containing pACT2 derivatives were used to transform yeast strain CG1945. The yeast mating was performed by picking one colony from each type and growing both colonies in liquid YPD medium with or without a proper ligand at the following concentrations: 100 nM of estradiol for ER; 10 μM of deoxycorticosterone for GR; 100 nM of dihydrotestosterone for AR; 500 nM of progesterone for PR; 10 μM of T3 for TR; 10 μM of all-trans-retinoic acid for RAR; and 10 μM of 9-cis-retinoic acid for RXR. The same amount of an aliquot of the mating culture was spread on both SD/-Leu/-Trp plates to select diploid strains bearing both plasmids and SD/-Leu/-Trp/-His/+3-AT plates to score the growth of the diploid cells that express the two interacting target proteins. The His3 positive colonies were further analyzed for β-galactosidase activity by liquid β-galactosidase activity measurement as essentially described in the protocol.\n(§2) Yeast strains Y187 expressing the Gal4DB fusion to the nuclear receptors and CG1945expressing Gal4AD alone or Gal4AD-PNRC fusion protein were mated by co-culturing, and selected for the presence of both two-hybrid plasmids. The expression of interacting hybrid proteins in yeast diploids was analyzed to determine if there was induction of HIS3 expression as shown in FIG. 1A and LacZ expression as shown in FIGS. 1B and 1C. […] As shown in FIGS. 1A-C, PNRC also interacted specifically with all seven nuclear receptor HBDs, including ER, AR, GR, TR, PR, RAR and RXR, and these interactions were completely ligand-dependent. […] However, no interactions occurred either between PNRC and an irrelevant protein such as human lamin C protein or between nuclear receptors and Gal4activation domain alone."}, "TR HBD": {"system": "TR HBD", "test": "Yeast two-hybrid assay (HIS3 / β-galactosidase reporter)", "format": "cell-based", "conditions": "10 μM of T3", "description": "as §1, §2"}, "RXR HBD": {"system": "RXR HBD", "test": "Yeast two-hybrid assay (HIS3 / β-galactosidase reporter)", "format": "cell-based", "conditions": "10 μM of 9-cis-retinoic acid", "description": "as §1, §2"}, "PR HBD": {"system": "PR HBD", "sequence (P06401 679-933 limits assumed)": "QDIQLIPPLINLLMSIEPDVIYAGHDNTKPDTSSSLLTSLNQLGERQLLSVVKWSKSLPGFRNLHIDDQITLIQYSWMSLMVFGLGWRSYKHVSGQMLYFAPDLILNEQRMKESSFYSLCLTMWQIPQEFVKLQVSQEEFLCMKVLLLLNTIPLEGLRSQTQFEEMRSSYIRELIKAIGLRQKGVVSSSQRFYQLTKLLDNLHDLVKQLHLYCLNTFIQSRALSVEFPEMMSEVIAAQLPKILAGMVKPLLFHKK", "test": "Yeast two-hybrid assay (HIS3 / β-galactosidase reporter)", "format": "cell-based", "conditions": "500 nM of progesterone", "description": "as §1, §2"}, "SF1 [1]": {"biological_target": "T1, SF1 (Bos taurus, UniProt Q04752)", "T1 sequence (Q04752 whole entry)": "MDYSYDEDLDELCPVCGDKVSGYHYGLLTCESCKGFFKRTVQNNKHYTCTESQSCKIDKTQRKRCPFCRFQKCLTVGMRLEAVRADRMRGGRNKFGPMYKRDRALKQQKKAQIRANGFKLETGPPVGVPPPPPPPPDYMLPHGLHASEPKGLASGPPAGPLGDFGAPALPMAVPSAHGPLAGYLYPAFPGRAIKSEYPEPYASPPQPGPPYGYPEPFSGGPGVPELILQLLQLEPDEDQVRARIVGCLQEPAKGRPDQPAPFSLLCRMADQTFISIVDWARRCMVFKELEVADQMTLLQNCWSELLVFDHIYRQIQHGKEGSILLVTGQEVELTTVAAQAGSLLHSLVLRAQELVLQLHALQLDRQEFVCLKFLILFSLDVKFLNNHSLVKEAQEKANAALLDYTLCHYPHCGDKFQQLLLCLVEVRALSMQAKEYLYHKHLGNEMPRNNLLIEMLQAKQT", "test": "Yeast two-hybrid assay (HIS3 / β-galactosidase reporter)", "format": "cell-based, bovine", "set-up": "The coding region for the wild type bovine SF1 was first subcloned into a yeast expression vector, pGBT9; expressed in transfected cells; host or cells: yeast (Y187, or Y187 x CG1945 diploids)", "conditions": "no ligand", "description": "as §1, §2"}, "SF1 [2]": {"biological_target": "T1, SF1", "test": "Mammalian two-hybrid assay in SK-BR-3 cells (CAT reporter)", "format": "cell-based, bovine", "set-up": "expressed in transfected cells; host or cells: SK-BR-3", "description": "The Mammalian MatchMaker two-hybrid assay system (Clontech) was used to confirm the interaction between PNRC and SF1 that was identified in the yeast assays. Because the assays are performed in mammalian cells, proteins are more likely to be in their native conformations, and the results are therefore more likely to represent biologically significant interactions. SK-BR-3 breast cancer cells were cotransfected with three expression plasmids, including pM-SF1 for Gal4 DNA-DB/SF1 fusion protein, pVP16-PNRC for VP16AD-PNRC fusion protein, and a third vector, pG5CAT, to provide the Gal4 DNA-binding site, a promoter, and the CAT reporter gene.\nA set of plasmids, named pM-SF1, pVP16-PNRC, pVP16-PNRC270-327, and pVP16-PNRC278-300, for mammalian two-hybrid assays were prepared as follows: SF1 cDNA fragment was excised from pGBT9-SF1 and inserted in frame into Gal4 DNA-binding domain vector pM (Clontech) through an EcoRI site. PCR was used to generate PNRC full length coding region as well as the above mentioned deleted fragments with BclI at both ends. The PCR products were digested with BclI and inserted in proper reading frame into a pVP16 activation domain vector (Clontech) at a BamHI site. Mammalian two-hybrid assays in SK-BR-3 cells were performed according to the procedures described in the Clontech protocol (PT3002-1)."}, "SF1 [3]": {"biological_target": "T1, SF1", "test": "GST pull-down binding assay", "set-up": "The coding region for the wild type bovine SF1 was first subcloned into a yeast expression vector, pGBT9; expressed in transfected cells; host or cells: yeast (Y187, or Y187 x CG1945 diploids); species or system bovine", "conditions": "GST fusion on glutathione Sepharose beads, 2 hour at 4° C.", "description": "To further confirm the interaction between PNRC and SF1 which was detected in both the yeast and the mammalian two-hybrid assays, a GST pull-down binding assay was performed to study the direct binding between PNRC and SF1 in vitro. The PNRC cDNA fragments were generated by PCR and inserted into E. coli expression vector pGEX2TK (Pharnacia) through a BamHI site to express GST-PNRC wild type and deletion mutants fusion proteins. Wild type bovine SF1 cDNA in pSG5 vector was translated in vitro in the presence of [^35S]methionine using the TNT Coupled Reticulocyte Lysate System (Promega, Madison, Wis.). GST and deleted PNRC fusion proteins, GST-PNRC270-327 and GST-PNRC278-300, were prepared using the affinity matrix Glutathione Sepharose 4B (Pharmacia) according to the supplier's instructions. The washed beads containing about 10 μg GST fusion protein were incubated for 2 hour at 4° C. with 4 μl in vitro translated, [^35S]methionine-labeled SF1 in a total volume of 150 μl incubation buffer (50 mM Kpi, pH 7.4, 100 mM NaCl, 1 mM MgCl2, 10% glycerol, 0.1% Tween 20, 1.5% BSA) (Treuter et al., 1998). […]\nPNRC fragments, including PNRC270-327 and PNRC278-300 were expressed as fusion proteins with glutathione S-transferase (GST) in E. coli BL21, purified with glutathione Sepharose 4B beads, and tested for their ability to bind in vitro translated [^35S]methionine-labeled SF1 in pull-down assays."}, "[4]": {"biological_target": "T2, Gal4DBD-SF1 fusion protein (bovine steroidogenic factor 1, pGBT9-SF1) (bovine, UniProt P04386 1-147; Q04752 1-461)", "T2 construct": "Yeast two-hybrid bait; whole wild type coding region; also called DBDGal4-SF1", "test": "yeast two-hybrid (HIS3 and LacZ reporters)"}, "[5]": {"biological_target": "Gal4DBD-ERRα1 fusion protein (estrogen related receptor α-1, pGBT9-ERRα-1) (UniProt P04386 1-147; P11474 1-423)", "test": "yeast two-hybrid (HIS3 and LacZ reporters)"}, "[6]": {"biological_target": "T3, Gal4DBD fusion of ERα ligand-binding domain, amino acids 274 to 595 (pGBT9-ER274-595) (UniProt P04386 1-147; P03372 274-595)", "T3 construct": "Tested with 100 nM estradiol; also called ER HBD", "test": "yeast two-hybrid (HIS3 and LacZ reporters)"}, "[7]": {"biological_target": "T4, Gal4AD-PNRC fusion protein (full-length proline-rich nuclear receptor co-regulatory protein) (human, UniProt Q12796 1-327)", "T4 construct": "Yeast two-hybrid prey; also called wild type PNRC in pACT2; B4-2", "test": "yeast two-hybrid (HIS3 and LacZ reporters)"}, "[8]": {"biological_target": "T5, Gal4 DNA-DB/SF1 fusion protein (pM-SF1) (bovine, UniProt P04386 1-147; Q04752 1-461)", "T5 construct": "Mammalian two-hybrid construct, expressed in SK-BR-3 cells", "test": "mammalian two-hybrid, CAT reporter, SK-BR-3 cells"}}, "note": "Entries after “also recorded” stand apart in the source; their conditions may differ. Ends that are not written are not given here.", "data": [{"molecule": "PNRC278-300 (mutant): PNRC278-300 carrying double mutations P287A and P290A (S-D-A-P-S-A-S, SEQ ID NO:6) (SDAPSAS; MUTAGEN (3) This residue has been changed from a proline.; listed as Homo sapiens)", "values": [{"measurement": "interaction with RAR", "setting": "RAR HBD", "value": "almost completely abolished the interactions"}, {"measurement": "interaction with TR", "setting": "TR HBD", "value": "almost completely abolished the interactions"}, {"measurement": "interaction with RXR", "setting": "RXR HBD", "value": "almost completely abolished the interactions"}, {"measurement": "interaction with PR", "setting": "PR HBD", "value": "almost completely abolished the interactions"}, {"measurement": "interaction with SF1", "setting": "SF1 [1]", "value": "almost completely abolished the interactions"}]}, {"molecule": "PNRC301-327: PNRC fragment aa 301-327 containing the NR box, Gal4AD fusion protein", "values": [{"measurement": "interaction with SF1", "setting": "SF1 [1]", "value": "could not interact with SF1"}]}, {"molecule": "NR box: NR box-like sequence LKTLL (aa 319-323; SEQ ID NO:4) of PNRC as fusion protein with Gal4 AD (not fully specified; UniProt Q12796 319-323, looked up, fragment)", "values": [{"measurement": "interaction with SF1", "setting": "SF1 [1]", "value": "No interaction was observed"}]}, {"molecule": "PNRC278-300: 23-amino acid PNRC region aa 278-300 (SEQ ID NO:9), expressed as Gal4AD, VP16 or GST fusion protein (NYAGAKFSDPPSPSVLPKPPSHW; listed as Homo sapiens)", "values": [{"measurement": "interaction with SF1 in mammalian two-hybrid assay", "setting": "SF1 [2]", "value": "retain most of the interaction of full length PNRC to SF1"}, {"measurement": "binding of in vitro translated 35S-labeled SF1", "setting": "SF1 [3]", "value": "found to bind SF1"}, {"measurement": "interaction with SF1", "setting": "SF1 [1]", "value": "able to interact with SF1"}]}, {"molecule": "PNRC/270-317: PNRC fragment aa 270-317 lacking the NR box, Gal4 AD fusion protein", "values": [{"measurement": "interaction with SF1", "setting": "SF1 [1]", "value": "about the same"}]}, {"molecule": "PNRC/270-327: C-terminal PNRC fragment aa 270-327, expressed as Gal4AD, VP16 or GST fusion protein", "values": [{"measurement": "binding of in vitro translated 35S-labeled SF1", "setting": "SF1 [3]", "value": "found to bind SF1"}, {"measurement": "interaction with SF1", "setting": "SF1 [1]", "value": "about the same; also recorded: stronger than the interaction between PNRC/278-300 and SF1"}]}, {"molecule": "Gal4 activation domain alone (other, UniProt P04386 768-881, looked up, Control of the yeast two-hybrid assays; also called Gal4AD; AD vector alone) ANFNQSGNIADSSLSFTFTNSSNGPNLITTQTNSQALSQPIASSNVHDNFMNNEITASKIDDGNNSKPLSPGWTDQTAYNAFGITTGMFNTTTMDDVYNYLFDDEDTPPNPKKE", "values": [{"measurement": "binding result", "setting": "[4]", "value": "no binding"}, {"measurement": "binding result", "setting": "[5]", "value": "no binding"}, {"measurement": "binding result", "setting": "[6]", "value": "no binding"}]}, {"molecule": "human lamin C protein (irrelevant protein, DNA-BD/control plasmid) (other, UniProt P04386 1-147, looked up, that lamin C is the DNA-BD control fusion is inferred from these two statements) MKLLSSIEQACDICRLKKLKCSKEKPKCAKCLKNNWECRYSPKTKRSPLTRAHLTEVESRLERLEQLFLLIFPREDLDMILKMDSLQDIKALLTGLFVQDNVNKDAVTDRLASVETDMPLTLRQHRISATSSSEESSNKGQRQLTVSSEEVVSREVSGIKAAYEAELGDARKTLDSVAKERARLQLELSKVREEFKELKARNTKKEGDLIAAQARLKDLEALLNSKEAALSTALSEKRTLEGELHDLRGQVAKLEAALGEAKKQLQDEMLRRVDAENRLQTMKEELDFQKNIYSEELRETKRRHETRLVEID", "values": [{"measurement": "binding result", "setting": "[7]", "value": "no binding"}]}, {"molecule": "STAPPTDVSLGDELHLDGEDVAMAHADALDDFDLDMLGDGDSPGP (other, Control of the mammalian two-hybrid assay; also called VP16 AD)", "note": "[VP16 activation domain alone]", "values": [{"measurement": "binding result", "setting": "[8]", "value": "no binding"}]}]}
